As a reminder, the IC50 is the concentration at which inhibition is half-maximal. High values mean weaker potency, low ones greater potency. For orientation: koff means the rate constant with which the complex falls apart. A low value points to a long-lived complex. The term kon denotes the second-order rate constant of association. A high value points to fast association.

In assay [1] the target is anti-CEP humanized antibody (anti-CEP huAb), full length. Briefly: competitive ELISA, CEP-BSA coated. On the technique in general: An ELISA detects its analyte on a solid surface through an enzyme-linked reagent.
Assay [2] has the same target. Briefly: competitive ELISA, CEP-BSA coated, inhibitor preincubated with anti-CEP huAb.
Assay [3] concerns the target T1, CEP-modified human serum albumin (CEP-HSA) (human, UniProt P02768 25-609, 2-(omega-carboxyethyl)pyrrole (CEP) derivatives of primary amino groups; sites and number not stated).
T1 construct: The antibodies recognise the CEP hapten on the carrier protein
Kind of assay: BIAcore 3000, CEP-HSA immobilized on CM5 chip, single-cycle kinetics, bivalent fit. For orientation: Surface plasmon resonance follows binding to a sensor surface in real time, without labels.

For assay [4], the target named is T1, CEP-modified human serum albumin …. Kind of assay: BIAcore SPR, single-cycle kinetics; CEP-HSA immobilised as ligand, antibody as analyte [panel A, table under the sensorgram].
Experimental: (§1) The binding affinity of each antibody was measured using BIAcore technology.
Assay [5] has the same target. Kind of assay: BIAcore SPR, single-cycle kinetics; CEP-HSA immobilised as ligand, antibody as analyte [panel B, table under the sensorgram].
Experimental: as §1
Assay [6] shares this target. Briefly: BIAcore, CEP-HSA on chip.
Experimental: as §1
For assay [7] the target is unchanged. Briefly: BIAcore single-cycle kinetic analysis.
For assay [8] the target is unchanged. Kind of assay: BIAcore SPR, single-cycle kinetics; CEP-HSA immobilised as ligand, antibody as analyte [table under the sensorgram].

In turn, CHP-BSA (from UniProt P02769 25-607) had a fold lower cross-reactivity than with anti-CEP mumAb in assay [1] of less than 10 fold. For the same molecule, the IC50 in assay [2] is 4690 µM.
Regarding CPP-HSA (from UniProt P02768 25-609), the 50% inhibitory concentration (IC50) in assay [2] was 10.5 µM.
The same measure, in the same setting: to “CEP-modified human serum albumin (CEP-HSA) (from UniProt P02768 25-609)” belongs 0.0056 µM.

B1: anti-CEP murine monoclonal antibody (anti-CEP mumAb), hybridoma clone 2D3.3G9-1 (antibody, mouse IgG2a, V domains shown)
VH: QIQLIQSGPELKKPGETVKISCKPSGYAFTKYGMDWVKQAPGEGLKWMGRINTYTGEPTYADDFKGRFAFSLEASASTAYLQINNLKNEDTATYFCARRRDGYPFAYWGQGTLVTVSS
VL: DIVMTQSHKFMSTSVRDRVSITCKASQDVSTAVAWYQQKPGQSPKILIYSASYRFPGVPDRFTGSGSGTDFTFTISSVQAEDLAVYYCHQHYFIPYTFGGGTKLEIK
notes: also called murine anti-CEP mAb; mouse counterpart
For the molecule B1, the Kd in assay [3] came to 0.00016 µM. In assay [4], this molecule yielded a koff of 0.00377 s⁻¹ and an association rate constant (kon) of 2.36e+07 M⁻¹ s⁻¹.

B2: anti-CEP humanized antibody (anti-CEP huAb), full length (antibody, human IgG1, V domains shown)
VH: QVQLVQSGAEVKKPGASVKVSCKASGYAFTKYGMDWVRQAPGQGLEWMGRINTYTGEPTYADDFKGRVTITADTSTSTAYMELSSLRSEDTAVYYCARRRDGYPFAYWGQGTLVTVSS
VL: DIVMTQSPDSLAVSLGERATINCKASQDVSTAVAWYQQKPGQPPKLLIYSASYRFPGVPDRFSGSGSGTDFTLTISSLQAEDVAVYYCHQHYFIPYTFGGGTKLEIK
notes: Human IgG1 heavy constant region (vector pFUSE-CHIg-hG1) and human kappa constant region (pFUSE2-CLIg-hk); expressed in CHO-S cells, clone A1; also called original anti-CEP huAb; anti-CEP humAb
In assay [5], B2 displayed a koff of 0.00025 s⁻¹ and a kon of 159000 M⁻¹ s⁻¹. Further, in assay [3], the Kd amounted to 0.00158 µM. In addition, in assay [6], the “fold weaker affinity than anti-CEP mumAb” value is roughly 10 fold.

B3: Mutant 2F1, full length anti-CEP huAb mutant (antibody, V domains shown)
VH: QVQLVQSGAEVKKPGASVKVSCKASGYALTKYGMDWVRQAPGQGLEWMGRINTYTGEPTYADDFKGRVTITADTSTSTAYMELSSLRSEDTAVYYCARRRGGYPFAYWGQGTLVTVSS
VL: DIVMTQSPDSLAVSLGERATINCKASQDVSTAVAWYQQKPGQPPKLLIYSASYRFPGVPDRFSGSGSGTDFTLTISSLQAEDVAVYYCHQHYFIPYTFGGGTKLEIK
With B3, in assay [7], the Kd is 0.00074 µM and the “fold stronger affinity than original anti-CEP huAb” value was roughly 2 fold. In assay [8], this molecule yielded a koff of 0.000228 s⁻¹ and an association rate constant (kon) of 308000 M⁻¹ s⁻¹.
